Source: publication PMC2650222 (Biochemistry, 2008)

Target: T1, Pyrococcus furiosus RPP29 (Pyrococcus furiosus, UniProt Q8U007 1-127)
T1 sequence (looked up): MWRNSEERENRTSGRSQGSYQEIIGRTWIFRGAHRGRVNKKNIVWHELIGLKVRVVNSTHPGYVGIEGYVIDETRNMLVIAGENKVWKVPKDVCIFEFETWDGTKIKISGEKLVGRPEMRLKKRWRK
Assay: NMR titration

binding result: binds
B1: Pyrococcus furiosus RPP21 (natural protein)
chain: AKYNEKKEKKRIAKERIDILFSLAERVFPYSPELAKRYVELALLVQQKAKVKIPRKWKRRYCKKCHAFLVPGINARVRLRQKRMPHIVVKCLECGHIMRYPYIKEIKKRRKEKMEYGGLVPR
modifications: 15N-labelled (uniform isotope labelling)
